In publication PMC8173049:
pKd: −log10 of the molar value.

Assays:
[1] = molecular target: HAdV-C5 capsid (replication-defective, E1-deleted vector particle with a GFP expression cassette) (human adenovirus C5) (UniProt P04133); test: SPR; BIAcore 3000; HAdV particles amine-coupled to a CM5 chip (3,500-4,000 RU, diluted in acetate buffer pH 4); lactoferrin 6.25-200 nM injected at 30 µl/min, 180 s association, 600 s dissociation; HBS-EP buffer (10 mM HEPES, 150 mM NaCl, 3 mM EDTA, 0.005% polysorbate 20, pH 7.4); bivalent fitting model
[2] = molecular target: HAdV-B35 capsid (replication-defective, E1-deleted vector particle with a YFP expression cassette) (human adenovirus B35); test: as above

human lactoferrin (natural protein)
pKd [1]: 6.10
pKd [2]: 4.27
